Test results as given in publication PMC5424160 (2017).

Target: GST-CDK9 (Homo sapiens (Human), UniProt P50750)
Assay: GST pull-down

GST-CDK9, sequence (P50750 whole entry): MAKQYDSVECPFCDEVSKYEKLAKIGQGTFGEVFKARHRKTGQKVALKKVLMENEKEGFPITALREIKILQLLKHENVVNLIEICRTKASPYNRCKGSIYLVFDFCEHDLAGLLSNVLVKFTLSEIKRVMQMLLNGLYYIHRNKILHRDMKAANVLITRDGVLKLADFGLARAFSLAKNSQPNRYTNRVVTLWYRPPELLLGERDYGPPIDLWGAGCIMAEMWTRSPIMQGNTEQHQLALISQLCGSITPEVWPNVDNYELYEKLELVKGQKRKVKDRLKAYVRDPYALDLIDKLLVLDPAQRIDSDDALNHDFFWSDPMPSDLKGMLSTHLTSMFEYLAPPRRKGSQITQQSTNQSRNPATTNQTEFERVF

B1: His-Menin (protein)
chain: MGLKAAQKTLFPLRSIDDVVRLFAAELGREEPDLVLLSLVLGFVEHFLAVNRVIPTNVPELTFQPSPAPDPPGGLTYFPVADLSIIAALYARFTAQIRGAVDLSLYPREGGVSSRELVKKVSDVIWNSLSRSYFKDRAHIQSLFSFITGTKLDSSGVAFAVVGACQALGLRDVHLALSEDHAWVVFGPNGEQTAEVTWHGKGNEDRRGQTVNAGVAERSWLYLKGSYMRCDRKMEVAFMVCAINPSIDLHTDSLELLQLQQKLLWLLYDLGHLERYPMALGNLADLEELEPTPGRPDPLTLYHKGIASAKTYYRDEHIYPYMYLAGYHCRNRNVREALQAWADTATVIQDYNYCREDEEIYKEFFEVANDVIPNLLKEAASLLEAGEERPGEQSQGTQSQGSALQDPECFAHLLRFYDGICKWEEGSPTPVLHVGWATFLVQSLGRFEGQVRQKVRIVSREAEAAEAEEPWGEEAREGRRRGPRRESKPEEPPPPKKPALDKGLGTGQGAVSGPPRKPPGTVAGTARGPEGGSTAQVPAPTASPPPEGPVLTFQSEKMKGMKELLVATKINSSAIKLQLTAQSQVQMKKQKVSTPSDYTLSFLKRQRKGL
binding result: no binding
